Columns and labels:
[1] = molecular target: Strep-inhibited α-C45A/L158C MoFe protein (Azotobacter vinelandii) (UniProt P07328); test: SEC; analytical gel filtration of MoFe protein pre-treated with 5 molar equivalents of L127Δ Fe protein
[2] = molecular target: T1, NifK (ß subunit) of the MoFe protein (Azotobacter vinelandii, UniProt P07329 1-523); test: native gel or EMSA; anoxic native-PAGE of the MoFe protein alone; conditions: both partners purified
T1 construct: Nitrogenase molybdenum-iron protein beta chain (NifK, ß subunit), Azotobacter vinelandii; The ß chain of m1 and m2, written alone; also called ß-subunit/NifK; source: A. vinelandii strain M1 (derivative of RS1), purified as part of the MoFe protein (HisTrap HP, Q-Sepharose)
T1 sequence: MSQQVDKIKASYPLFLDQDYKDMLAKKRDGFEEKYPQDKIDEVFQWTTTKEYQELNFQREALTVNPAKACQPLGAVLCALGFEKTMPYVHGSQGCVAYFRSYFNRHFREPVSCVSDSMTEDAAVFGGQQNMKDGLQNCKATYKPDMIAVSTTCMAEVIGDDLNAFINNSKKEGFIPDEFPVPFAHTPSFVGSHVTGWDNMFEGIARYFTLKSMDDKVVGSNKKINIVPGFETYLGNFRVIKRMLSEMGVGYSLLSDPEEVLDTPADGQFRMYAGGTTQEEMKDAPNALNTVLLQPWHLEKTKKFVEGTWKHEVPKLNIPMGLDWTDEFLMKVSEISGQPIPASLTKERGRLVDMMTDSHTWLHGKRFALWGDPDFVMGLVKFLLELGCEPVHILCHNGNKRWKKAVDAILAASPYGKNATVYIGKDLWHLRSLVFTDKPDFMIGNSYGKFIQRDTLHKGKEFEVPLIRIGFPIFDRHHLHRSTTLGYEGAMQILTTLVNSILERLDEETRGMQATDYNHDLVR

Molecule	percent of the broadened MoFe peak that is MoFe:Fe1 complex (multi-Gaussian peak analysis) [1] [%]	binding result [2]
L127Δ Fe protein (non-ATP-hydrolyzing NifH2 mutant) (enzyme)	68	–
NifD (α subunit) of the Strep-inhibited α-C45A/L158C MoFe protein (natural protein, Azotobacter vinelandii, C158 joined by thiol-maleimide Michael addition to the peptide maleimide-GGGWSHPQFEK | N-terminal maleimide, joined to C158 of the α subunit, Nitrogenase molybdenum-iron protein alpha chain (NifD, α subunit), Azotobacter vinelandii; The α chain of m2, written alone; in the sample only part of the α subunits carry the peptide; also called Strep-modified α subunit) GMSREEVESLIQEVLEVYPEKARKDRNKHLAVNDPAVTQSKKAIISNKKSQPGLMTIRGCAYAGSKGVVWGPIKDMIHISHGPVGCGQYSRAGRRNYYIGTTGVNAFVTMNFTSDFQEKDIVFGGDKKLAKLIDEVETLFPLNKGISVQSECPIGCIGDDIESVSKVKGAELSKTIVPVRCEGFRGVSQSLGHHIANDAVRDWVLGKRDEDTTFASTPYDVAIIGDYNIGGDAWSSRILLEEMGLRCVAQWSGDGSISEIELTPKVKLNLVHCYRSMNYISRHMEEKYGIPWMEYNFFGPTKTIESLRAIAAKFDESIQKKCEEVIAKYKPEWEAVVAKYRPRLEGKRVMLYIGGLRPRHVIGAYEDLGMEVVGTGYEFAHNDDYDRTMKEMGDSTLLYDDVTGYEFEEFVKRIKPDLIGSGIKEKFIFQKMGIPFREMHSWDYSGPYHGFDGFAIFARDMDMTLNNPCWKKLQAPWEASEGAEKVAASA peptide: GGGWSHPQFEK	–	binds

Source: PMC10207099, “Nitrogen Fixation and Hydrogen Evolution by Sterically Encumbered Mo-Nitrogenase” (JACS Au, 2023)
